T1: human IL2Rβ (human, UniProt P14784 27-239)
T1 construct: also called IL2β; CD122
T1 sequence (looked up): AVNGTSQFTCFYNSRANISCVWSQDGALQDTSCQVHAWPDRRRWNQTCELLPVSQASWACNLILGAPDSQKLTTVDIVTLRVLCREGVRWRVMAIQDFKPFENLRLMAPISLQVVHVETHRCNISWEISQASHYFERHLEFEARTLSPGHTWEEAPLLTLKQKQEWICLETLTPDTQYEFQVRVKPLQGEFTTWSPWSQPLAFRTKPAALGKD

T2: human IL2Rα (human, UniProt P01589 22-213, limits assumed)
T2 construct: also called IL2α; CD25
T2 sequence (looked up): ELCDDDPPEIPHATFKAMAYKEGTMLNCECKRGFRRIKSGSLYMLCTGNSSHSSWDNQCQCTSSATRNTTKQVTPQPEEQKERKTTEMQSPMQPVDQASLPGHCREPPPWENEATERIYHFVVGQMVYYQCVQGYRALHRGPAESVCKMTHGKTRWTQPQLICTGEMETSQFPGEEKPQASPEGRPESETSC

T3: human IL2Rα Fc fusion protein (human, UniProt P01589 22-213, limits assumed)
T3 construct: also called Recombinant Fc-tagged human IL2Rα; not shown: Fc
T3 sequence (looked up): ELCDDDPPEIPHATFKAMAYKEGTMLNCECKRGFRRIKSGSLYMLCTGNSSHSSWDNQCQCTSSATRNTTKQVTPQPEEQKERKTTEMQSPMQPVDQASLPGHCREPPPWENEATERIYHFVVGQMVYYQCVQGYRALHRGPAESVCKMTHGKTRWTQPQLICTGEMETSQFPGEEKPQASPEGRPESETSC

T4: human IL2Rβ Fc fusion protein (human, UniProt P14784 27-239)
T4 construct: also called Recombinant Fc-tagged human IL2Rβ; not shown: Fc
T4 sequence (looked up): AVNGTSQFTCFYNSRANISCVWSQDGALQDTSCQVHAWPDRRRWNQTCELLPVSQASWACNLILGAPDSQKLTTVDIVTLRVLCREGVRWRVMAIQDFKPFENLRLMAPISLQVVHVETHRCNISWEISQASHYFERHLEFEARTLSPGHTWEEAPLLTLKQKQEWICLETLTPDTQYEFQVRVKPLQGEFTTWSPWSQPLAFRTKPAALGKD


Legend:
human IL2Rβ = biological target: T1, human IL2Rβ; assay: SPR, receptor captured on Protein A chip, E. coli-produced IL2
Experimental: The assay was run with Biacore T200 control software version 2.0. For each cycle, 1 μg/mL of human IL2Rβ or IL2Rα was captured for 60 seconds at flow rate of 10 μL/min on flow cell 2 in 1×HBST buffer on Protein A sensor chip. Two-fold serial diluted HIS tag purified engineered IL2 mutant was injected onto both reference flow cell 1 and IL2Rβ or IL2Rα captured flow cell 2 for 150 seconds at flow rate of 30 μL/min followed by washing for 300 seconds. The flow cells were then regenerated with Glycine pH 2 for 40 seconds at a flow rate of 30 μL/mins. Eight concentration points from 0 to 100 nM were assayed for each IL2Rβ agonist clone 96-well plate format. The kinetics data was analyzed with Biacore T200 evaluation software 3000. The specific binding response unit was derived from subtraction of binding to reference flow cell 1 from target flow cell 2.

human IL2Rα = biological target: T2, human IL2Rα; assay: SPR, IL2Rα captured on Protein A chip, IL2 at 100 nM
Experimental: The binding kinetics of IL2Rα-reduced binding clones to IL2Rα was assessed utilizing SPR technology with a Biacore T200, software version 2.0. For each cycle, 1 ug/mL of human IL2Rα was captured for 60 seconds at a flow rate of 10 uL/min on flow cell 2 in 1×HBSP buffer on a Protein A sensor chip. 100 nM of each HIS and Flag tag purified IL2 mutant was injected onto both the reference flow cell 1 and IL2Rα captured flow cell 2 for 150 seconds at a flow rate of 30 uL/min followed by washing for 300 seconds. The flow cells were then regenerated with Glycine pH 2.0 for 60 seconds at a flow rate of 30 uL/min. A HBSP+ buffer was included with each sample as a baseline control. The assay was set up in a 96-well format. The kinetics data was analyzed with Biacore T200 evaluation software 3.0. The specific binding response unit was derived from subtraction of binding to reference flow cell 1 from IL2Rα flow cell 2 and subtraction of buffer control. […] Relative response (RU) was determined for each IL2Rα-reduced binding clone (FIG. 4, Table 3).

[1] = biological target: T3, human IL2Rα Fc fusion protein; assay: ELISA, receptor-Fc coated, anti-Flag HRP
Experimental: (§1) Briefly, 384 well plate was immobilized with human IL2Rα and IL2Rβ Fc fusion proteins at a final concentration of 2 ug/mL in 1×PBS in total volume of 25 uL per well. The plate was incubated overnight at 4 C and blocked with 80 uL of superblock per well for 1 hour. […] Each dilution was added to IL2Rα or IL2Rβ wells in parallel in duplicates. The IL2 mutant binding was detected by adding 25 uL of anti-Flag HRP diluted at 1:5000 in 1×PBST. In between each step, the plate was washed three times with 1×PBST using a plate washer. The plate was then developed with 25 uL of TMB substrate for five minutes and stopped by adding 25 ul of 2N sulfuric acid. The plate was read at OD450 nm Biotek plate reader and the EC50 was analyzed with Prism 8.1 software to generate EC50 values (FIG. 15A for IL2Rα, and FIG. 15B for IL2Rβ, summarized in Table 9).

[2] = biological target: T4, human IL2Rβ Fc fusion protein; assay: ELISA, receptor-Fc coated, anti-Flag HRP
Experimental: as §1

[3] = biological target: T4, human IL2Rβ Fc fusion protein; assay: ELISA, Fc-tagged receptor coated, anti-HisTag-HRP
Experimental: Recombinant Fc-tagged human IL2Rα and IL2Rβ were added in 25 uL of 1×PBS to wells of 384-well plate and incubated overnight at 4° C. to coat the plates. Plates were washed three times with 0.05% Tween20/1×PBS. Plates were blocked with 100 uL of SuperBlock for 1 hr at RT and then washed 3 times with 0.05% Tween20/1×PBS. IL2 mutants were diluted in 0.05% Tween 20/1×PBS from 1000 nM to 0 nM and added to plates for 2 hrs at room temperature. Plates were then washed 6 times with 0.05% Tween20/1×PBS. Anti-HisTag-HRP was diluted 1:5000 in 0.05% Tween20/1×PBS and added to plates for 1 hr at RT. Plates were then washed 6 times with 0.05% Tween 20/1×PBS, and TMB was added to develop blue color. Reactions were stopped with 2N […] and light absorbance at 450 nm was read on a BioTek plate reader.

Binder	RU (at 100 nM) (human IL2Rα) [RU]	Relevant binding to WT IL2 (%) (human IL2Rα)	EC50 [1] [nM]	EC50 [2] [nM]	also measured
EP007 (ligand, not shown: C-terminal Flag and 6xHis tags) APTSSSTKKTQLQLEHLLLDLQMILNGINNYKNPKLTRMLTFKFYMPKKATELKHLQCLEEELKPLEEVLNLAQSKNFHLKWGDAVSNARVLAGALKGSETTFMCEYADETATIVEFLNRWITFCQSIISTLT					Kd (human IL2Rβ): 0.37 nM; koff (human IL2Rβ): 0.000263 s⁻¹; kon (human IL2Rβ): 709000 M⁻¹ s⁻¹; relative activity IL2Rβ (KD: fold) against WT IL2 (human IL2Rβ): 11700 fold
EP120 (ligand) APTSSSTKKTQLQLEHLLLDLQMILNGINNYKNPKLTVMLTFKFTMPKKATELKHLQCLEEELKPLEEVLNLAQSKNFHLRPRDLISNINVIVLELKGSETTFMCEYADETATIVEFLNRWITFSQSIISTLT	3.6	2.54			
EP243 (ligand, not shown: His and Flag tags) APTSSSTKKTQLQLEHLLLDLQMILNGINNYKNPKLTRMLTFKFYMPKKATELKHLQCLEEELKPLEEVLNLAQSKNFHLRPRDAIDNIRVIIQELKGSETTFMCEYADETATIVEFLNRWITFCQSIISTLT			6.7	217	
EP350 (ligand, not shown: His and Flag tags) APTSSSTKKTQLQLEHLLLDLQMILNGINNYKNPKLTRMLTAKFYMPKKATELKHLQCLEEELKPLEEVLNLAQSKNFHLTARDAISNINVIIQELKGSETTFMCEYADETATIVEFLNRWITFCQSIISTLT					EC50 [3]: 39.9 nM
EP101 (ligand) APTSSSTKKTQLQLEHLLLDLQMILNGINNYKNPKLTRMLTLKFPMPKKATELKHLQCLEEELKPLEEVLNLAQSKNFHLRPRDLISNINVIVLELKGSETTFMCEYADETATIVEFLNRWITFSQSIISTLT	2.5	1.76			
EP125 (ligand) APTSSSTKKTQLQLEHLLLDLQMILNGINNYKNPKLTNMLTFKFAMPKKATELKHLQCLEEELKPLEEVLNLAQSKNFHLRPRDLISNINVIVLELKGSETTFMCEYADETATIVEFLNRWITFSQSIISTLT	6.1	4.29			
EP245 (ligand, not shown: His and Flag tags) APTSSSTKKTQLQLEHLLLDLQMILNGINNYKNPKLTRMLTFKFYMPKKATELKHLQCLEEELKPLEEVLNLAQSKNFHLRARDAISNIRVIIQELKGSETTFMCEYADETATIVEFLNRWITFCQSIISTLT			4.8	123	
EP244 (ligand, not shown: His and Flag tags) APTSSSTKKTQLQLEHLLLDLQMILNGINNYKNPKLTRMLTFKFYMPKKATELKHLQCLEEELKPLEEVLNLAQSKNFHLRARDLIDNIRVIIQELKGSETTFMCEYADETATIVEFLNRWITFCQSIISTLT			10.2	2830	
EP347 (ligand, not shown: His and Flag tags) APTSSSTKKTQLQLEHLLLDLQMILNGINNYKNPKLTVMLTFKFSMPKKATELKHLQCLEEELKPLEEVLNLAQSKNFHLTPRDAIDNIRVIVQELKGSETTFMCEYADETATIVEFLNRWITFCQSIISTLT					EC50 [3]: 77.6 nM
EP100 (ligand) APTSSSTKKTQLQLEHLLLDLQMILNGINNYKNPVLTRMLTIKFYMPKKATELKHLQCLEEELKPLEEVLNLAQSKNFHLRPRDLISNINVIVLELKGSETTFMCEYADETATIVEFLNRWITFSQSIISTLT	1.7	1.19			
EP110 (ligand, not shown: His and Flag tags) APTSSSTKKTQLQLEHLLLDLQMILNGINNYKNPLLTDMLTRKFYMPKKATELKHLQCLEEELKPLEEVLNLAQSKNFHLRPRDLISNINVIVLELKGSETTFMCEYADETATIVEFLNRWITFCQSIISTLT	2.6	1.83			

Second part, led by results:

RU (at 100 nM) (human IL2Rα) [RU]	Relevant binding to WT IL2 (%) (human IL2Rα)	EC50 [1] [nM]	EC50 [2] [nM]	Binder	also measured
2.5	1.76			EP117 (ligand) APTSSSTKKTQLQLEHLLLDLQMILNGINNYKNPKLTYMLTFKFSMPKKATELKHLQCLEEELKPLEEVLNLAQSKNFHLRPRDLISNINVIVLELKGSETTFMCEYADETATIVEFLNRWITFSQSIISTLT	
2.7	1.9			EP102 (ligand, not shown: small tags and cut ends) APTSSSTKKTQLQLEHLLLDLQMILNGINNYKNPDLTSMLAFKFYMPKKATELKHLQCLEEELKPLEEVLNLAQSKNFHLRPRDLISNINVIVLELKGSETTFMCEYADETATIVEFLNRWITFSQSIISTLT	
		20.2	576	EP249 (ligand, not shown: His and Flag tags) APTSSSTKKTQLQLEHLLLDLQMILNGINNYKNPKLTRMLTFKFYMPKKATELKHLQCLEEELKPLEEVLNLAQSKNFHLTPRDLIDNIRVIIQELKGSETTFMCEYADETATIVEFLNRWITFCQSIISTLT	
		5.6		EP257 (ligand, not shown: His and Flag tags) APTSSSTKKTQLQLEHLLLDLQMILNGINNYKNPKLTRMLTFKFYMPKKATELKHLQCLEEELKPLEEVLNLAQSKNFHLTARDLIDNIRVIILELKGSETTFMCEYADETATIVEFLNRWITFCQSIISTLT	
		13.2	23.4	EP250 (ligand, not shown: His and Flag tags) APTSSSTKKTQLQLEHLLLDLQMILNGINNYKNPKLTRMLTFKFYMPKKATELKHLQCLEEELKPLEEVLNLAQSKNFHLTPRDAISNIRVIIQELKGSETTFMCEYADETATIVEFLNRWITFCQSIISTLT	
		7	269	EP246 (ligand, not shown: His and Flag tags) APTSSSTKKTQLQLEHLLLDLQMILNGINNYKNPKLTRMLTFKFYMPKKATELKHLQCLEEELKPLEEVLNLAQSKNFHLRARDAIDNINVIIQELKGSETTFMCEYADETATIVEFLNRWITFCQSIISTLT	
		13.4	188	EP248 (ligand, not shown: His and Flag tags) APTSSSTKKTQLQLEHLLLDLQMILNGINNYKNPKLTRMLTFKFYMPKKATELKHLQCLEEELKPLEEVLNLAQSKNFHLRARDAIDNIRVIILELKGSETTFMCEYADETATIVEFLNRWITFCQSIISTLT	

Source: patent publication US20230002466A1 (ELPIS BIOPHARMACEUTICALS, published 2023)
